Legend:
[1] = target: T1, TlGUS L1 (Treponema lecithinolyticum β-glucuronidase) (Treponema lecithinolyticum, UniProt A0AA82WPE8); assay: […] Å crystal structure; type: binding
T1 construct: recombinant, N-terminal (His)6 tag retained

[2] = target: T1, TlGUS L1 (Treponema lecithinolyticum β-glucuronidase); assay: […] Å crystal structure (as UNC4917-GlcA conjugate formed with PNPG); 4-MUG hydrolysis IC50; type: biochemical
[3] = target: T1, TlGUS L1 (Treponema lecithinolyticum β-glucuronidase); assay: […] Å crystal structure (as ciprofloxacin-GlcA conjugate formed with PNPG); IC50; type: biochemical
[4] = target: Tannerella forsythia GUS L2 (loop 2 β-glucuronidase) (Tannerella forsythia); assay: crystal structure; hanging drop vapor diffusion at room temperature; quaternary structure seen in the crystal
[5] = target: Tannerella forsythia GUS L2 (loop 2 β-glucuronidase) (Tannerella forsythia); assay: SEC-MALS; Superdex 200; protein at 2 mg/ml in 20 mM Hepes (pH 7.4), 300 mM NaCl; 50 μl injected, 0.5 ml/min
[6] = target: Tannerella forsythia GUS mL1 (mini-loop 1 β-glucuronidase) (Tannerella forsythia); assay: crystal structure; hanging drop vapor diffusion at room temperature; quaternary structure seen in the crystal
[7] = target: Tannerella forsythia GUS mL1 (mini-loop 1 β-glucuronidase) (Tannerella forsythia); assay: SEC-MALS; Superdex 200; protein at 2 mg/ml in 20 mM Hepes (pH 7.4), 300 mM NaCl; 50 μl injected, 0.5 ml/min
[8] = system: Cc1cc(=O)oc2cc(O[C@@H]3O[C@H](C(=O)O)[C@@H](O)[C@H](O)[C@H]3O)ccc12; assay: purified protein; conditions: pH 5.0
[9] = target: Treponema lecithinolyticum GUS L1 (loop 1 β-glucuronidase) (Treponema lecithinolyticum); assay: crystal structure; hanging drop vapor diffusion at room temperature; quaternary structure seen in the crystal
[10] = target: Treponema lecithinolyticum GUS L1 (loop 1 β-glucuronidase) (Treponema lecithinolyticum); assay: SEC-MALS; Superdex 200; protein at 2 mg/ml in 20 mM Hepes (pH 7.4), 300 mM NaCl; 50 μl injected, 0.5 ml/min
[11] = substrate: Cc1cc(=O)oc2cc(O[C@@H]3O[C@H](C(=O)O)[C@@H](O)[C@H](O)[C@H]3O)ccc12; assay: purified protein; conditions: pH 5.0; remark: listed apart in the source

CNc1ccc2c(n1)sc1c(N3CCN([C@@H]4O[C@H](C(=O)O)[C@@H](O)[C@H](O)[C@H]4O)CC3)nc(NC)nc12 [UNC4917-GlcA, UNC4917-GlcA conjugate] was tested, and the “1.75 Å crystal structure” value [1] was “The UNC4917-GlcA conjugate is located within the active site”.

For CNc1ccc2c(n1)sc1c(N3CCNCC3)nc(NC)nc12 [UNC4917], the IC50 [2] was 2.5 µM.

Molecule O=C(O)c1cn(C2CC2)c2cc(N3CCNCC3)c(F)cc2c1=O [ciprofloxacin] has an IC50 [3] of 18.3 µM.

“Tannerella forsythia GUS L2 (loop 2 β-glucuronidase) (enzyme)” was tested, and the stoichiometry N [4] was 2 and the stoichiometry N [5] was 2.

“Tannerella forsythia GUS mL1 (mini-loop 1 β-glucuronidase) (enzyme)” was tested, and the stoichiometry N [6] was 4 and the stoichiometry N [7] was 4.

With “TlGUS L1 (Treponema lecithinolyticum β-glucuronidase) (Treponema lecithinolyticum)” the Km [8] was 6.8 ± 1 µM, the kcat [8] was 19 ± 1 s⁻¹ and the kcat/Km [8] was 2.8e+06 M⁻¹ s⁻¹.

“Treponema lecithinolyticum GUS L1 (loop 1 β-glucuronidase) (enzyme)” showed a stoichiometry N [9] of 4 and a stoichiometry N [10] of 4.

B1: human GUS (β-glucuronidase) (Homo sapiens) (protein)
chain: LQGGMLYPQESPSRECKELDGLWSFRADFSDNRRRGFEEQWYRRPLWESGPTVDMPVPSSFNDISQDWRLRHFVGWVWYEREVILPERWTQDLRTRVVLRIGSAHSYAIVWVNGVDTLEHEGGYLPFEADISNLVQVGPLPSRLRITIAINNTLTPTTLPPGTIQYLTDTSKYPKGYFVQNTYFDFFNYAGLQRSVLLYTTPTTYIDDITVTTSVEQDSGLVNYQISVKGSNLFKLEVRLLDAENKVVANGTGTQGQLKVPGVSLWWPYLMHERPAYLYSLEVQLTAQTSLGPVSDFYTLPVGIRTVAVTKSQFLINGKPFYFHGVNKHEDADIRGKGFDWPLLVKDFNLLRWLGANAFRTSHYPYAEEVMQMCDRYGIVVIDECPGVGLALPQFFNNVSLHHHMQVMEEVVRRDKNHPAVVMWSVANEPASHLESAGYYLKMVIAHTKSLDPSRPVTFVSNSNYAADKGAPYVDVICLNSYYSWYHDYGHLELIQLQLATQFENWYKKYQKPIIQSEYGAETIAGFHQDPPLMFTEEYQKSLLEQYHLGLDQKRRKYVVGELIWNFADFMTEQSPTRVLGNKKGIFTRQRQPKSAAFLLRERYWKIANETRYPHSVAKSQCLENSLFT
B1 was tested, and the Km [11] was 84 ± 7 µM, the kcat [11] was 2.2 s⁻¹ and the kcat/Km [11] was 26000 M⁻¹ s⁻¹.
